Laboratory results: paper PMC2175290 (The Journal of Cell Biology, 2000)

T1: Mex67pΔC1/His6-Mtr2p complex (S. cerevisiae | yeast, UniProt Q99257;P34232)
T1 sequence 1: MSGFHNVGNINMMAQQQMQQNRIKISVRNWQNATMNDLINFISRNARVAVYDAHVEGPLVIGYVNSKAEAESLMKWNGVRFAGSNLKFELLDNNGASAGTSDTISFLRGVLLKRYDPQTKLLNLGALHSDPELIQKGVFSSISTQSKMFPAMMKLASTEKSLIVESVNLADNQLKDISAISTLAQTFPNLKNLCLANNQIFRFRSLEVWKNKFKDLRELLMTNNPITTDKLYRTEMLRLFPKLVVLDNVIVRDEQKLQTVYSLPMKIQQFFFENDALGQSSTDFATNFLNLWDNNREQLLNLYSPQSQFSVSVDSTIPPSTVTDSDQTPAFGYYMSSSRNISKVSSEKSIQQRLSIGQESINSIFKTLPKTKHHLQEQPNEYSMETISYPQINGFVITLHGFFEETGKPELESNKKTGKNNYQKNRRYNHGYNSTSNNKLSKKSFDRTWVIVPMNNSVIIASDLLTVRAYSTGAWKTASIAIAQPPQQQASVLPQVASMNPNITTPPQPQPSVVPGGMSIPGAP
T1 sequence 2: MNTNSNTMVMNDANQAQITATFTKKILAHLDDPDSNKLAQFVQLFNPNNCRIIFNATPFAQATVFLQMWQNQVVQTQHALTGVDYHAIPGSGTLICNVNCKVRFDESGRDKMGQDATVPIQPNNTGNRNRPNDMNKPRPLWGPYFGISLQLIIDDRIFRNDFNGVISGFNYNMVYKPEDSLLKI

T2: Mex67p/His6-Mtr2p complex (S. cerevisiae | yeast, UniProt Q99257;P34232)
T2 sequence 1: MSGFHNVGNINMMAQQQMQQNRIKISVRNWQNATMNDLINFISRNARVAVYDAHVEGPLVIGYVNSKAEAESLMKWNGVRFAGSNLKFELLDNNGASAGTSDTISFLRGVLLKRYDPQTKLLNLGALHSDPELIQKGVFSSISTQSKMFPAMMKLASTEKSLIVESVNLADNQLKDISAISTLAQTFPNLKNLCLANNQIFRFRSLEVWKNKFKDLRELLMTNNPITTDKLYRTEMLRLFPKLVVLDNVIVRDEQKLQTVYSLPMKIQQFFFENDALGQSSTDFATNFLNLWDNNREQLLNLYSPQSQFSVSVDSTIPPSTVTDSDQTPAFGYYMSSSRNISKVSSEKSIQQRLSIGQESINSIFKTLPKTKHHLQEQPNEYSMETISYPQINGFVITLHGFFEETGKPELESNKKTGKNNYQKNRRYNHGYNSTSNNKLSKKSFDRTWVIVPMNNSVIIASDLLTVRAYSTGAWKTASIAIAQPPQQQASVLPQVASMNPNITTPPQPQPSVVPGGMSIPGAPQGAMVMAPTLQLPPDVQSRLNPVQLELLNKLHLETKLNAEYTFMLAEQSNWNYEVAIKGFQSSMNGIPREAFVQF
T2 sequence 2: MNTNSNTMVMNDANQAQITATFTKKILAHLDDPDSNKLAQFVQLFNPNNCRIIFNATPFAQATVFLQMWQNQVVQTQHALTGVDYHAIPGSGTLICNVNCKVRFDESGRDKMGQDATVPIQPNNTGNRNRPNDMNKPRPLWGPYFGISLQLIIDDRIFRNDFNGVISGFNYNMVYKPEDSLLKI

B1: untagged full-length Mex67p (natural protein)
chain: MSGFHNVGNINMMAQQQMQQNRIKISVRNWQNATMNDLINFISRNARVAVYDAHVEGPLVIGYVNSKAEAESLMKWNGVRFAGSNLKFELLDNNGASAGTSDTISFLRGVLLKRYDPQTKLLNLGALHSDPELIQKGVFSSISTQSKMFPAMMKLASTEKSLIVESVNLADNQLKDISAISTLAQTFPNLKNLCLANNQIFRFRSLEVWKNKFKDLRELLMTNNPITTDKLYRTEMLRLFPKLVVLDNVIVRDEQKLQTVYSLPMKIQQFFFENDALGQSSTDFATNFLNLWDNNREQLLNLYSPQSQFSVSVDSTIPPSTVTDSDQTPAFGYYMSSSRNISKVSSEKSIQQRLSIGQESINSIFKTLPKTKHHLQEQPNEYSMETISYPQINGFVITLHGFFEETGKPELESNKKTGKNNYQKNRRYNHGYNSTSNNKLSKKSFDRTWVIVPMNNSVIIASDLLTVRAYSTGAWKTASIAIAQPPQQQASVLPQVASMNPNITTPPQPQPSVVPGGMSIPGAPQGAMVMAPTLQLPPDVQSRLNPVQLELLNKLHLETKLNAEYTFMLAEQSNWNYEVAIKGFQSSMNGIPREAFVQF
B2: His6-Mtr2p (natural protein)
chain: MNTNSNTMVMNDANQAQITATFTKKILAHLDDPDSNKLAQFVQLFNPNNCRIIFNATPFAQATVFLQMWQNQVVQTQHALTGVDYHAIPGSGTLICNVNCKVRFDESGRDKMGQDATVPIQPNNTGNRNRPNDMNKPRPLWGPYFGISLQLIIDDRIFRNDFNGVISGFNYNMVYKPEDSLLKI

Experiments:
[1] = target: T1, Mex67pΔC1/His6-Mtr2p complex; assay: pull-down
[2] = target: T2, Mex67p/His6-Mtr2p complex; assay: pull-down
[3] = target: B2; assay: AUC
[4] = target: B1; assay: pull-down

| binding result [1] | binding result [2] | stoichiometry N [3] | binding result [4] | Binder |
| --- | --- | --- | --- | --- |
| binds | binds | – | – | GST-FG_(Nup159) (domain or fragment) QSQSSSTFGAPSFGSSAFKIDLPSVSSTSTGVASSEQDATDPASAKPVFGKPAFGAIAKEPSTSEYAFGKPSFGAPSFGSGKSSVESPASGSAFGKPSFGTPSFGSGNSSVEPPASGSAFGKPSFGTPSFGSGNSSAEPPASGSAFGKPSFGTSAFGTASSNETNSGSIFGKAAFGSSSFAPANNELFGSNFTISKPTVDSPKEVDSTSPFPSSGDQSEDESKSDVDSSSTPFGTKPNTSTKPKTNAFDFGSSSFGSGFSKALESVGSDTTFKFGTQASPFSSQLGNKSPFSSFTKDDTENGSLSKGSTSEINDDNEEHESNGPNVSGNDLTDSTVEQTSSTRLPETPSDEDGEVVEEEAQKSPIGKLTETIKKSANIDMAGLKNPVFGNHVKAKSESPFSAFATNITKPSSTTPAFSFGNSTMNKSNTSTVSPMEEADTKETS |
| – | – | 1 | – | B1 |
| – | – | – | binds | B2 |
| binds | binds | – | – | GST-GLFG_(Nup116) (domain or fragment) YQAGRKFGTSQNGTGTTFNNPQGTTNTGFGIMGNNNSTTSATTGGLFGQKPATGMFGTGTGSGGGFGSGATNSTGLFGSSTNLSGNSAFGANKPATSGGLFGNTTNNPTNGTNNTGLFGQQNSNTNGGLFGQQQNSFGANNVSNGGAFGQVNRGAFPQQQTQQGSGGIFGQSNANANGGAFGQQQGTGALFGAKPASGGLFGQSAGSKAFGMNTNPTGTTGGLFGQTNQQQSGGGLFGQQQNSNAGGLFGQNNQSQNQSGLFGQQNSSNAFGQPQQQGGLFGSKPAGGLFGQQQGASTFASGNAQNNSIFGQNNQQQQSTGGLFGQQNNQSQSQPGGLFGQTNQNNNQPFGQNGLQQPQQNNSLFGAKPTGFGNTSLFSNSTTNQSNGISGNNLQQQSGGLFQNKQQPASGGLFGSKPSNTVGGGLFGNNQVANQNNPASTSGGLFGSKPATGSLFGGTNSTAPNASSGGIFGSNNASNTAATTNSTGLFGNKPVGAGASTSAGGLFGNNNNSSLNNSNGSTGLFGSNNTSQSTNAGGLFQNNTSTNTSGGGLFSQPSQSMAQSQNALQQ |
